Laboratory results taken from PMC5499591 (Nucleic Acids Research, 2017).
Changes are numbered by the printed parent chain. Names may count otherwise.

T1: GST-Mcm10 (wild type) (Saccharomyces cerevisiae, UniProt P32354 1-571)
T1 sequence: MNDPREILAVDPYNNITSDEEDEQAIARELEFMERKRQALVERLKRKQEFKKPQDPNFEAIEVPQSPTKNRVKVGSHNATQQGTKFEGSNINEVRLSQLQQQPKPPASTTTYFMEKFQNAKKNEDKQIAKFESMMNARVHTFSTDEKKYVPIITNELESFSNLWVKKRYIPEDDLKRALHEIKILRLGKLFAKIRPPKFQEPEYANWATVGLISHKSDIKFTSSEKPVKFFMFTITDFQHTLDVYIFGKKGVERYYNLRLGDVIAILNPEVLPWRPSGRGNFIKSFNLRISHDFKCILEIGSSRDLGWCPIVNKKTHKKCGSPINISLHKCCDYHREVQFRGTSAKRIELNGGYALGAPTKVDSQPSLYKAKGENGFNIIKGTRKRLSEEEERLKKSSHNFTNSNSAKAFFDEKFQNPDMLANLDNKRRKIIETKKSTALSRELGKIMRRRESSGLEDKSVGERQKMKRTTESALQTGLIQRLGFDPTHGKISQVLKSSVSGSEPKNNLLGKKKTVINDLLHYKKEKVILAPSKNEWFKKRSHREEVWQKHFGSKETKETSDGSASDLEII

T2: wild-type GST-Mcm10 (Saccharomyces cerevisiae, UniProt P32354 1-571)
T2 sequence: T1 sequence

T3: GST-p180 (budding yeast (S. cerevisiae), UniProt P13382 1-1468)
T3 sequence: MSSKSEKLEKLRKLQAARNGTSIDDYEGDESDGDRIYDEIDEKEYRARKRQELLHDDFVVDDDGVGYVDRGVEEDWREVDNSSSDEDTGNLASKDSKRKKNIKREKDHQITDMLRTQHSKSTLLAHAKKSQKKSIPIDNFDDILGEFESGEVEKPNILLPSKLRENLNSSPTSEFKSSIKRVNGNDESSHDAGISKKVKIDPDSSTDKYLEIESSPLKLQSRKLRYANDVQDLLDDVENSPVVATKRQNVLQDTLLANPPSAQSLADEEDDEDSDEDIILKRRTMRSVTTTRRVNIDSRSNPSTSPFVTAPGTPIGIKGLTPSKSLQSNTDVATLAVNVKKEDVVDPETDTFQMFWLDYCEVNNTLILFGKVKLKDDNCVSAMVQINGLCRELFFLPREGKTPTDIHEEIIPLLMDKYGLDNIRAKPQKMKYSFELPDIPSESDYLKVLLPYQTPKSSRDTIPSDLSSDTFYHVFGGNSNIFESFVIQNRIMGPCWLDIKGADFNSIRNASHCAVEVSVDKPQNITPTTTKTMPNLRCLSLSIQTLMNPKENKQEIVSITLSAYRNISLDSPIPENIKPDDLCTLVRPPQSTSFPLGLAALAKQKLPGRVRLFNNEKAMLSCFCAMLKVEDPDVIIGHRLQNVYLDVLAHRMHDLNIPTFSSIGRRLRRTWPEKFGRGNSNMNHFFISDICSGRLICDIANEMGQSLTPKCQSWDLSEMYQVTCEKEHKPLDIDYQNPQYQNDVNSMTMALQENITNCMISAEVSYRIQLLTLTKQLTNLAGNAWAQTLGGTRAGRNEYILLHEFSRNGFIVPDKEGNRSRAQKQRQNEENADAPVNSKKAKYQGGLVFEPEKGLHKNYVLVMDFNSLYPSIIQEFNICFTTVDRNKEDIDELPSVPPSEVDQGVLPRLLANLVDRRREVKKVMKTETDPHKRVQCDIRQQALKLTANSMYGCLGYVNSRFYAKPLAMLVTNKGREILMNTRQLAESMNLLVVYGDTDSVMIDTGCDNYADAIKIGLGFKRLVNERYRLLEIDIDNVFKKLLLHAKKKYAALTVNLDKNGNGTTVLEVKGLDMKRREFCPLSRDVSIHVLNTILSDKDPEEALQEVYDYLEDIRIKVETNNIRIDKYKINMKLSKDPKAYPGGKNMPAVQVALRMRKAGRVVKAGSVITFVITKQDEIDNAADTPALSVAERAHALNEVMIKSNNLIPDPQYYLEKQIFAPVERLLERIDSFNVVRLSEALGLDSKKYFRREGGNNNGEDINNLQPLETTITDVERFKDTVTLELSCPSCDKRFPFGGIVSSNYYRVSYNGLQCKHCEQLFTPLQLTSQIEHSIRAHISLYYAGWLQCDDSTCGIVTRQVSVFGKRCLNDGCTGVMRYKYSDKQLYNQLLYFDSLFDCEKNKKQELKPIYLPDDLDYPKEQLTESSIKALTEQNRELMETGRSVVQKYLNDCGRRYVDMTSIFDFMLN

T4: GST-Cdc45 (budding yeast (S. cerevisiae), UniProt Q08032 1-650)
T4 sequence: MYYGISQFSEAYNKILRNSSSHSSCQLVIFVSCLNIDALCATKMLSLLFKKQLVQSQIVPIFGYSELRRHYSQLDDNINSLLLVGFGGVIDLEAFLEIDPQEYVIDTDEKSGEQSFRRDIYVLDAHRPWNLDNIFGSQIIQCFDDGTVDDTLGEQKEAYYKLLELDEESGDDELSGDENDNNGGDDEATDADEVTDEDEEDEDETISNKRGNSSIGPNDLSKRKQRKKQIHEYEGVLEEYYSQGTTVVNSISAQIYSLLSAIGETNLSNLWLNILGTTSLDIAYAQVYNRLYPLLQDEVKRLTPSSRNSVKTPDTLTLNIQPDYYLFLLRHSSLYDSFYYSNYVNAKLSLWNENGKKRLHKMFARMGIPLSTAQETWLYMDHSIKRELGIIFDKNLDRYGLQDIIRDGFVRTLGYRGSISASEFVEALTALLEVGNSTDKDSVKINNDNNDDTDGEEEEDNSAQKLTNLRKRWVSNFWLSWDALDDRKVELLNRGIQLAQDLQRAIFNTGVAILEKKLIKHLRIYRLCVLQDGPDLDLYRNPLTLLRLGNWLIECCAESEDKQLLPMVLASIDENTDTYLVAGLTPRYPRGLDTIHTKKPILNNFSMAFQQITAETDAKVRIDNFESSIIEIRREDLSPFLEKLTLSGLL

T5: GST-Dbf4 (budding yeast (S. cerevisiae), UniProt P32325 1-704)
T5 sequence: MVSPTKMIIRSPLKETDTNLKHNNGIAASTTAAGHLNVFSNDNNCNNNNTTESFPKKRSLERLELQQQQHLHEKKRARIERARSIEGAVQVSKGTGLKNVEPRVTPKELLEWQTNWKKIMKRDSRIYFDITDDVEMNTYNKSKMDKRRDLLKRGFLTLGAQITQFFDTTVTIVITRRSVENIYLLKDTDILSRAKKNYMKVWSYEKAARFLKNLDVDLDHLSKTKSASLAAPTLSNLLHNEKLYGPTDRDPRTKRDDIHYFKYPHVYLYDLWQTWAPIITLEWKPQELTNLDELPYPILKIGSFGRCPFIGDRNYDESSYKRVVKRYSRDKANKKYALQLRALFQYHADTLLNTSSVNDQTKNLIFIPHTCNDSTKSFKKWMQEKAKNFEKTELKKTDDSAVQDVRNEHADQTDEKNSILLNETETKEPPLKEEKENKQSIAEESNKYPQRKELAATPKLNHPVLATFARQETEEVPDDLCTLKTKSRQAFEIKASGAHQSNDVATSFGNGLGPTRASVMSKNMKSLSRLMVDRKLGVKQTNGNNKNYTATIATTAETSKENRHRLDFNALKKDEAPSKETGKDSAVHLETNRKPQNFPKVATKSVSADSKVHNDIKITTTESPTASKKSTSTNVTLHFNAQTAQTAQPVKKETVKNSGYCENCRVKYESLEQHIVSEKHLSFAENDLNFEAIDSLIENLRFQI

T6: GST-Mcm10-4A (Saccharomyces cerevisiae, UniProt P32354 1-571, I26A;L30A;R37A;L40A)
T6 sequence: T1 sequence with I26A, L30A, R37A, L40A

B1: blunt dsDNA (called 30mer) (dsDNA)
DNA 1: ATGTCCTAGCAAGCCAGAATTCGGCAGCGTC
DNA 2: GACGCTGCCGAATTCTGGCTTGCTAGGACAT
B2: radiolabeled wild-type PKA-Mcm10 (natural protein)
chain: T1 sequence
modifications: 32P label put on the PKA tag by protein kinase A with [gamma-32P]-ATP
B3: GST-Mcm10-4A (Mcm10-I26A-L30A-R37A-L40A) (natural protein)
chain: T1 sequence with I26A, L30A, R37A, L40A
B4: radiolabeled PKA-Mcm10-4A (Mcm10-I26A-L30A-R37A-L40A) (natural protein)
chain: T1 sequence with I26A, L30A, R37A, L40A
modifications: 32P label put on the PKA tag by protein kinase A with [gamma-32P]-ATP
B5: 80mer ssDNA (80dT) (ssDNA)
DNA: TTTTTTTTTTTTTTTTTTTTTTTTTTTTTTTTTTTTTTTTTTTTTTTTTTTTTTTTTTTTTTTTTTTTTTTTTTTTTTTT

Columns and labels:
GST-Mcm10 (wild type) = target: T1, GST-Mcm10 (wild type); test: GST pull-down
wild-type GST-Mcm10 = target: T2, wild-type GST-Mcm10; test: pull-down
GST-p180 = target: T3, GST-p180; test: pull-down
[1] = target: radiolabeled PKA-Mcm2–7 complex (budding yeast (S. cerevisiae), UniProt P29469;P24279;P30665;P29496;P53091;P38132); test: pull-down
GST-Cdc45 = target: T4, GST-Cdc45; test: pull-down
GST-Dbf4 = target: T5, GST-Dbf4; test: pull-down
GST-Mcm10-4A = target: T6, GST-Mcm10-4A; test: GST pull-down

Binder	binding result (GST-Mcm10 (wild type))	binding result (GST-p180)	other results
B1	binds		
B2		binds	binding result (wild-type GST-Mcm10): binds
B3			binding result [1]: binds
B4		binds	binding result (GST-Cdc45): binds; binding result (GST-Dbf4): binds
B5	binds		
ATGTCCTAGCAAGCCAGAATTCGGC (ssDNA) [25mer ssDNA]	binds		binding result (GST-Mcm10-4A): binds
